{
  "source": "patent US20090062180A1",
  "about": "(TEL AVIV UNIVERSITY FUTURE TECHNOLOGY DEVELOPMENT L P, published 2009)",
  "key": {"[1]": {"target": "T1, Purified recombinant rabbit GSK-3β (glycogen synthase kinase-3β) (rabbit, UniProt A0A5F9DUX8 1-420)", "experiment": "cell-based or functional assay"}, "[2]": {"target": "endogenous GSK-3 (in HEK 293 cells)", "experiment": "cell-based or functional assay"}, "[3]": {"target": "mitogen activated protein kinase (MAPK)", "experiment": "cell-based or functional assay"}, "[4]": {"target": "catalytic subunit of cAMP dependent protein kinase (PKA)", "experiment": "cell-based or functional assay"}, "[5]": {"target": "casein kinase-2 (CK-2)", "experiment": "cell-based or functional assay"}, "[6]": {"target": "Cyclic dependent protein kinase, cdc2", "experiment": "cell-based or functional assay"}, "[7]": {"target": "Protein kinase C-δ", "experiment": "cell-based or functional assay"}, "[8]": {"target": "Protein kinase B (PKB)", "experiment": "cell-based or functional assay"}, "[9]": {"target": "T1, Purified recombinant rabbit GSK-3β …", "experiment": "Lineweaver-Burk analysis of the in vitro GSK-3 kinase assay; competitive against PGS-1 peptide substrate", "procedure": "The results represent phosphate incorporation into PGS-1 peptide substrate (CPM). […] Each point is a mean of duplicate samples.\nIn vitro inhibition assays: Purified recombinant rabbit GSK-30 (Eldar-Finkelman et al., 1996) was incubated with peptide substrate PGS-1 ([…](p)EDEEE) (SEQ ID NO:15) and with a peptide inhibitor at indicated concentrations. The reaction mixture included Tris 50 mM (pH=7.3), 10 mM MgAc, ³²P[γ-ATP] (100 μM), 0.01% β-mercaptoethanol, and was incubated for 10 minutes at 30° C. Reactions were spotted on phosphocellulose paper (p81), washed with 100 mM phosphoric acid, and counted for radioactivity (as described in Eldar-Finkelman et al., 1996)."}, "[10]": {"target": "T1, Purified recombinant rabbit GSK-3β …", "experiment": "cell-based or functional assay", "remark": "listed apart in the source"}},
  "note": "Square brackets hold non-standard residues; d marks the D form. Ends that are not written are not given here. * marks the point of attachment. Myristoyl = CCCCCCCCCCCCCC(=O)*; pS = N[C@@H](COP(=O)(O)O)C(=O)O",
  "data": [
    {"binder": "Myristoyl-GKEAPPAPPQ[pS]P", "note": "[L803-mts (N-Myristol-GKEAPPAPPQS(p)P)]", "values": [
      {"measurement": "IC50 (comparative GSK-3β inhibition assay, PGS-1 substrate; FIG. 4)", "setting": "[1]", "result": 40, "unit": "µM"},
      {"measurement": "IC50 (in vitro GSK-3 kinase inhibition, PGS-1 substrate; FIGS. 3a-b)", "setting": "[1]", "result": 40, "unit": "µM"},
      {"measurement": "glycogen synthase activity in HEK 293 cells", "setting": "[2]", "result": 2.5, "unit": "fold"}
    ]},
    {"binder": "KEAPPAPPQ[pS]P (also called peptide 9)", "note": "[Peptide No. 9 KEAPPAPPQS(p)P (L803)]", "values": [
      {"measurement": "IC50 (in vitro GSK-3 kinase inhibition, PGS-1 substrate)", "setting": "[1]", "result": 150, "unit": "µM"},
      {"measurement": "% Maximal activity (kinase activity with 200 µM L803)", "setting": "[3]", "result": 106, "unit": "%"},
      {"measurement": "% Maximal activity (kinase activity with 200 µM L803)", "setting": "[4]", "result": 86, "unit": "%"},
      {"measurement": "% Maximal activity (kinase activity with 200 µM L803)", "setting": "[5]", "result": 117, "unit": "%"},
      {"measurement": "% Maximal activity (kinase activity with 200 µM L803)", "setting": "[6]", "result": 90, "unit": "%"},
      {"measurement": "% Maximal activity (kinase activity with 200 µM L803)", "setting": "[7]", "result": 111, "unit": "%"},
      {"measurement": "% Maximal activity (kinase activity with 200 µM L803)", "setting": "[8]", "result": 91, "unit": "%"},
      {"measurement": "Ki", "setting": "[9]", "result": 70, "unit": "µM"}
    ]},
    {"binder": "PAPPQ[pS]P", "note": "[Peptide No. 12 PAPPQS(p)P]", "values": [
      {"measurement": "Inhibitor functionality (IC50)", "setting": "[10]", "result": "> 800", "unit": "µM"}
    ]}
  ]
}
